Measured values reported in US11633477B2, “Treatment of cornea using laminin” (KYOTO PREFECTURAL PUBLIC UNIVERSITY CORPORATION, priority 2014, dated 2023).
Where a name gives a salt, the structure may show the parent alone.

Experiments:
[1] = tested on: rabbit bullous keratopathy model; test: Adhesion of injected cells to substrate after 24 hours in rabbit bullous keratopathy model, laminin with ROCK inhibitor; format: in vivo; conditions: average; 24 hours after injection of cultured RCEC into anterior chamber; Y-27632 100 μM in both groups, with or without laminin 511-E8 fragments 2.1 nM
Description: A rabbit corneal endothelium was mechanically detached to make a bullous keratopathy model. Adhesion of injected cells to a substrate after 24 hours was compared between individuals injected with cultured rabbit corneal endothelial cells together with a ROCK inhibitor Y-27632 (+) (100 μM) into the anterior chamber and individuals injected with cells together with laminin 511-E8 fragments (2.1 nM) and Y-27632 (+) (100 μM). The rabbit was euthanized after 24 hours. Corneal tissue was extracted and subjected to phalloidin staining to evaluate the morphology and cell count of adhered cells.

p-FAK = test: Western blot of cell adhesion associated protein Phospho-FAK in corneal endothelial cells; format: cell-based, human; conditions: HCEC; laminin 511-E8 fragments 2.1 nM; three hours after seeding
Description: (§1) The medium was completely removed from a culture dish culturing human corneal endothelial cells. The cells were washed twice with PBS (−). After washing, phosphate buffer was added, and the mixture was incubated for 5 minute at 37° C. (5% CO2). Subsequently, PBS (−) was removed and TrypLE™ Select (10×) (Life Technologies, A12177-01) was added. The mixture was incubated for 10 minutes at 37° C. (5% CO2). Opti-MEMI (Life Technologies, 31985-070) was then added to collect the cells. After collecting the cells, the cells were centrifuged for 3 minutes at 1200 rpm to make a cell suspension with Opti-MEM I. At this time, a laminin 511-E8 fragment free group was prepared as a control, as well as a group supplemented with laminin 511-E8 fragments so that the final concentration was 2.1 nM. At the same time, mouse IgG and integrin neutralizing antibody were added to the laminin 511-E8 fragment added group to adjust the final concentration to 2 μg/ml. After adjustment, cells were seeded on a 12-well plate at 1×10^5 cells/well and proteins were collected after three hours of seeding. Western blot was used to detect Phospho-FAK (Cell Signaling TECHNOLOGY, 8556S), FAK (Cell Signaling TECHNOLOGY, 32855), and p-Paxillin (Cell Signaling TECHNOLOGY, 2541S). The dilution factor for each antibody was 1:1000. The densitometry was quantified using Image J.

[2] = tested on: rabbit bullous keratopathy model; test: Cultured corneal endothelium transplantation in rabbit bullous keratopathy model using laminin 511-E8 fragment; format: in vivo
Description: A rabbit corneal endothelium was mechanically detached using a 20 gauge silicone needle (Soft Tapered Needle; Inami & Co., Ltd., Tokyo, Japan) to make a bullous keratopathy model. The control group is a produced model that was not injected with cells. The RCEC group was injected with cultured rabbit corneal endothelial cells in the anterior chamber of the produced model and was maintained in a face-down posture for three hours. Further, the RCEC+E8 group was injected with cultured rabbit corneal endothelial cells, together with DMEM containing laminin 511-E8 fragments adjusted to a concentration of 2.1 nM, into the anterior chamber of the produced model and was maintained in a face-down posture for three hours.
The corneal thickness of an individual produced in FIG. 1 was measured sequentially with an ultrasound pachymeter (SP-2000; Tomey, Nagoya, Japan). When unmeasurable, 1200 μm, which is the measurable upper limit value, was used.
The histological examination in FIG. 3 was conducted as follows. The examination was checking normal functioning with immunostaining using Na^+/K^+-ATPase and ZO-1. This is for examining the functions of corneal endothelial cells, pumping function and barrier function. Na^+/K^+-ATPase and ZO-1 indicate normalcy of corneal endothelial cell functions, pumping function and barrier function, respectively. The approach is as follows.
After cells were immobilized, ZO-1 and Na^+/K^+-ATPase were used as function associated markers and immunostaining was applied for observation with a fluorescence microscope. For tissue staining inspection, cornea tissue extracted from a rabbit was immobilized with 4% formaldehyde for 10 minutes at room temperature (RT) and was incubated for 30 minutes with 1% bovine serum albumin (BSA). To find the phenotype of regenerated corneal endothelial tissue, immunohistochemical analysis was performed on an adhesion binding associated protein ZO-1 and pumping function associated protein Na^+/K^+-ATPase. ZO-1 and Na^+/K^+-ATPase were used as markers associated with cell functions. ZO-1 and Na^+/K^+-ATPase were stained using 1:200 dilution of ZO-1 polyclonal antibodies (Zymed Laboratories, Inc., South San Francisco, Calif.) and Na^+/K^+-ATPase monoclonal antibodies (Upstate Biotec, Inc., Lake Placid, N.Y.). 1:2000 dilution of Alexa Fluor®488 label (Life Technologies Corp., Carlsbad, Calif.) was used as the secondary antibody. The nucleus of cells was then stained with DAPI (Vector Laboratories, Inc., Burlingame, Calif.). The cell morphology was further stained with 1:400 dilution of Alexa Fluor® 488-conjugated phalloidin (Life Technologies Corp., Carlsbad, Calif.). The slide was then observed under a fluorescence microscope (TCS SP2 AOBS; Leica Microsystems, Welzlar, Germany).

[3] = tested on: monkey bullous keratopathy model; test: Cultured corneal endothelium transplantation in monkey bullous keratopathy model with laminin 511-E8 fragments; format: in vivo; conditions: cynomolgus monkey
Description: A cynomolgus monkey corneal endothelium was mechanically detached using a 20 gauge silicone needle (Soft Tapered Needle; Inami & Co., Ltd., Tokyo, Japan) to make a bullous keratopathy model. In FIG. 9, […] cultured monkey corneal endothelial cells were injected with DMEM containing laminin 511-E8 fragments adjusted to a concentration of 2.1 nM into the anterior chamber of the bullous keratopathy model, which was maintained in a face-down posture for three hours. In FIG. 10, the Descemet's membrane was detached in a produced bullous keratopathy model and, similarly, 5.0×10^5 cultured monkey corneal endothelial cells were injected with DMEM containing laminin 511-E8 fragments adjusted to a concentration of 2.1 nM into the anterior chamber of the bullous keratopathy model, which was maintained in a face-down posture for three hours.
The corneal thickness was measured with an ultrasound pachymeter (SP-2000; Tomey, Nagoya, Japan). When unmeasurable, 1200 μm, which is the measurable upper limit value, was used.

[4] = tested on: monkey bullous keratopathy model; test: Laminin coating of corneal stroma in Descemet's membrane detached monkey bullous keratopathy model, then cell transplantation; format: in vivo; conditions: cynomolgus monkey, laminin 511-E8 21 nM in anterior chamber for one hour (coating), then MCEC with 2.1 nM
Description: A cynomolgus monkey corneal endothelium was mechanically detached using a 20 gauge silicone needle (Soft Tapered Needle; Inami & Co., Ltd., Tokyo, Japan) to make a bullous keratopathy model. The Descemet's membrane was detached in the produced bullous keratopathy model. Laminin 511-E8 fragments were injected into the anterior chamber of the bullous keratopathy model at a concentration of 21 nM and the model was left standing for one hour. The corneal stroma exposed by detaching the Descemet's membrane was coated thereby in the living body. Subsequently, 5.0×10^5 cultured monkey corneal endothelial cells were injected with DMEM containing laminin 511-E8 fragments adjusted to a concentration of 2.1 nM into the anterior chamber of the bullous keratopathy model, which was maintained in a face-down posture for three hours as in Example 3.

[5] = tested on: human corneal endothelial cells; test: Adhesion of corneal endothelial cells (CellTiter-Glo, 24 hours after seeding); format: cell-based; conditions: laminin 511-E8 fragments 2.1 nM added on seeding; relative to fragment free cells; HCEC
Description: The medium was completely removed from a culture dish culturing human corneal endothelial cells. The cells were washed twice with PBS (−). After washing, phosphate buffer was added, and the mixture was incubated for 5 minute at 37° C. (5% CO2). Subsequently, PBS (−) was removed and TrypLE™ Select (10×) (Life Technologies, A12177-01) was added. The mixture was incubated for 10 minutes at 37° C. (5% CO2). Opti-MEMI (Life Technologies, 31985-070) was then added to collect the cells. After collecting the cells, the cells were centrifuged for 3 minutes at 1200 rpm to make a cell suspension with Opti-MEM I. At this time, a laminin 511-E8 fragment free group was prepared as a control, as well as a group supplemented with laminin 511-E8 fragments so that the final concentration was 2.1 nM. At the same time, mouse IgG and integrin neutralizing antibody were added to the laminin 511-E8 fragment added group to adjust the final concentration to 2 μg/ml. After the adjustment, cells were seeded on a 96-well plate at 5000 cells/well and were incubated for 24 hours at 37° C. (5% CO2). After 24 hours of seeding, the medium was completely removed and the cells were washed twice with PBS (−). After washing, a medium and CellTiter-Glo Luminescent Cell Viability Assay (Promega Corporation, Madison, Wis.) were added at a ratio of 1:1. […]

p-Paxillin = test: Western blot of cell adhesion associated protein p-Paxillin in corneal endothelial cells; format: cell-based, human; conditions: HCEC; laminin 511-E8 fragments 2.1 nM; three hours after seeding
Description: as §1

[6] = tested on: rabbit bullous keratopathy model; test: Cultured corneal endothelium transplantation in rabbit bullous keratopathy model with or without Descemet's membrane detachment, laminin with ROCK inhibitor (4 groups); format: in vivo; conditions: 14 days after transplantation, laminin 511-E8 fragment (2.1 nM) added group, with Y-27632 100 μM
Description: Tests were conducted with 4 groups of 4 rabbits, i.e., group injected with cultured corneal endothelial cells together with Y-27632 (+) (100 μM) after detaching corneal endothelial cells without detaching the Descemet's membrane, group injected with cells together with laminin 511-E8 fragments (2.1 nM) and Y-27632 (+) (100 μM) after detaching corneal endothelial cells without detaching the Descemet's membrane, group in which a bullous keratopathy model with detached Descemet's membrane was injected with cells together with Y-27632 (100 μM), and group in which a bullous keratopathy model with detached Descemet's membrane was injected with cells together with laminin 511-E8 fragments (2.1 nM) and Y-27632 (+) (100 μM).
The corneal thickness was measured with an ultrasound pachymeter (SP-2000; Tomey, Nagoya, Japan). When unmeasurable, 1200 μm, which is the measurable upper limit value, was used. Further, the ocular pressure was measured with a Tonovet (M. E. Technica, Tokyo).
The histological examination shown in FIG. 8 was conducted in the same manner as in Example 1.

[7] = rabbit cornea after transplantation of RCEC with laminin 511-E8 fragments 2.1 nM

C[C@@H](N)[C@H]1CC[C@H](C(=O)Nc2ccncc2)CC1 [Y-27632, (R)-(+)-trans-(4-pyridyl)-4-(1-aminoethyl)-cyclohexanecarboxamide dihydrochloride monohydrate, reference compound]
adhering cell density [1]: 717.3 cells/mm^2

B1: laminin 511-E8 fragment: E8 fragment of human laminin α5β1γ1 (Nippi. Inc., 382-02413) (protein)
chain 1: AAEDAAGQALQQADHTWATVVRQGLVDRAQQLLANSTALEEAMLQEQQRLGLVWAALQGARTQLRDVRAKKDQLEAHIQAAQAMLAMDTDETSKKIAHAKAVAAEAQDTATRVQSQLQAMQENVERWQGQYEGLRGQDLGQAVLDAGHSVSTLEKTLPQLLAKLSILENRGVHNASLALSASIGRVRELIAQARGAASKVKVPMKFNGRSGVQLRTPRDLADLAAYTALKFYLQGPEPEPGQGTEDRFVMYMGSRQATGDYMGVSLRDKKVHWVYQLGEAGPAVLSIDEDIGEQFAAVSLDRTLQFGHMSVTVERQMIQETKGDTVAPGAEGLLNLRPDDFVFYVGGYPSTFTPPPLLRFPGYRGCIEMDTLNEEVVSLYNFERTFQLDTAVDRPCARSKSTGDPWLTDGSYLDGTGFARISFDSQISTTKRFEQELRLVSYSGVLFFLKQQSQFLCLAVQEGSLVLLYDFGAGLKKAVPLQPPPPLTSASKAIQVFLLGGSRKRVLVRVERATVYSVEQDNDLELADAYYLGGVPPDQLPPSLRRLFPTGGSVRGCVKGIKALGKYVDLKRLNTTGVSAGCTADLLVGRAMTFHGHGFLRLALSNVAPLTGNVYSGFGFHSAQDSALLYYRASPDGLCQVSLQQGRVSLQLLRTEVKTQAGFADGAPHYVAFYSNATGVWLYVDDQLQQMKPHRGPPPELQPQPEGPPRLLLGGLPESGTIYNFSGCISNVFVQRLLGPQRVFDLQQNLGSVNVSTGCAPALQAQTPGLGPRGLQATARKASRRSRQPARHPA
chain 2: LQHSAADIARAEMLLEEAKRASKSATDVKVTADMVKEALEEAEKAQVAAEKAIKQADEDIQGTQNLLTSIESETAASEETLFNASQRISELERNVEELKRKAAQNSGEAEYIEKVVYTVKQSAEDVKKTLDGELDEKYKKVENLIAKKTEESADARRKAEMLQNEAKTLLAQANSKLQLLKDLERKYEDNQRYLEDKAQELARLEGEVRSLLKDISQKVAVYSTCL
chain 3: EANDILNNLKDFDRRVNDNKTAAEEALRKIPAINQTITEANEKTREAQQALGSAAADATEAKNKAHEAERIASAVQKNATSTKAEAERTFAEVTDLDNEVNNMLKQLQEAEKELKRKQDDADQDMMMAGMASQAAQEAEINARKAKNSVTSLLSIINDLLEQLGQLDTVDLNKLNEIEGTLNKAKDEMKVSDLDRKVSDLENEAKKQEAAIMDYNRDIEEIMKDIRNLEDIRKTLPSGCFNTPSIEKP
p-FAK (p-FAK): promoted
corneal thickness ([2]; average on day 7, RCEC injected with laminin 511-E8 fragments 2.1 nM, ultrasound pachymeter): 637 μm
N-cadherin (adherence junction) immunostaining [2, 7]: normally expressed
Na+/K+-ATPase (pumping function) immunostaining [2, 7]: expressed
ZO-1 (tight junction, barrier function) immunostaining [2, 7]: expressed
cell morphology by phalloidin staining [2, 7]: monolayer polygonal morphology
cornea appearance in pictures of anterior ocular segment ([2]; rabbit, cultured RCEC injected into anterior chamber with or without laminin 511-E8 fragments 2.1 nM, after one and two weeks): transparent and healed
cornea appearance (anterior ocular segment pictures) ([3]; Descemet's membrane detached, 5.0x10^5 MCEC with laminin 511-E8 2.1 nM, no coating): not transparent or healed
corneal thickness becoming thin ([3]; Descemet's membrane detachment group): did not become thin
healing of bullous keratopathy (anterior ocular segment pictures) ([3]; no Descemet's membrane detachment, 5.0x10^5 MCEC with laminin 511-E8 2.1 nM, up to Day 14): heal bullous keratopathy
corneal thickness becoming thin ([3]; without Descemet's membrane detachment): it did
cornea appearance (anterior ocular segment pictures) [4]: transparent and healed
adhering cell density [1]: 1662.8 cells/mm^2
number of adhering cells after 24 hours [5]: 137.3±2.8%
p-Paxillin (p-Paxillin): promoted
cell morphology by phalloidin staining [6]: normal monolayer polygonal morphology
